# Data: publication doi:10.1101/2025.02.05.636725, “DHRS7 Integrates NADP^+/NADPH Redox Sensing with Inflammatory Lipid Signalling via the Oxoeicosanoid Pathway” (bioRxiv, 2025)
# B1: dr Dhrs7 (Danio rerio) (protein)
# chain: MDICWLCVGLAGTAVYLLVQFIRFIFADADLTLLWAARFGKTPESTFRGKVVWITGASSGIGEELSLQLAAIGARLVLSARRENELERVKRLCLERSSLKAEDILVLPLDLMDRASHPEKTTAALEHFGEIDVLINNGGRSQRALCVDADVDVYQALMELNYLGTVSITKQVLPHMIQRGTGIIATVSSVAGFVGVPLATGYAASKHALQGFFNSLRTELSDCPNILISNICPGPVISSIVQNAFTEELGKPVATAGDQTHKMSTERCVHLTLVGLANRVKEMWIAEQPFLLFCYVWQYTPTLAWYLTNVLGKKRVQNFKAGVDADAAYFSKPKAKTS
# notes: Dhrs7-eGFP fusion (pSBtet-eGFP vector, doxycycline-induced) in microsomes of human HEK293T DHRS7-knockout cells
# B2: hs DHRS7 (Homo sapiens) (protein)
# chain: MNWELLLWLLVLCALLLLLVQLLRFLRADGDLTLLWAEWQGRRPEWELTDMVVWVTGASSGIGEELAYQLSKLGVSLVLSARRVHELERVKRRCLENGNLKEKDILVLPLDLTDTGSHEAATKAVLQEFGRIDILVNNGGMSQRSLCMDTSLDVYRKLIELNYLGTVSLTKCVLPHMIERKQGKIVTVNSILGIISVPLSIGYCASKHALRGFFNGLRTELATYPGIIVSNICPGPVQSNIVENSLAGEVTKTIGNNGDQSHKMTTSRCVRLMLISMANDLKEVWISEQPFLLVTYLWQYMPTWAWWITNKMGKKRIENFKSGVDADSSYFKIFKTKHD
# notes: DHRS7-eGFP fusion (pSBtet-eGFP vector, doxycycline-induced) in microsomes of HEK293T DHRS7-knockout cells
# Key:
# [1] = substrate: NC(=O)c1ccc[n+]([C@@H]2O[C@H](COP(=O)(O)OP(=O)(O)OC[C@H]3O[C@@H](n4cnc5c(N)ncnc54)[C@H](OP(=O)(O)O)[C@@H]3O)[C@@H](O)[C@H]2O)c1; experiment: NADPH fluorescence, plate reader, Michaelis-Menten fit of initial velocities; type: cell-based, Danio rerio; details: microsomes of overexpressing HEK293T DHRS7-KO cells, 5(S)-HETE in excess, pH 7.5, 37 °C, apparent (pseudo-first order), eGFP fusion, varied: cofactor
# [2] = substrate: CCCCC/C=C\C/C=C\C/C=C\C=C\[C@@H](O)CCCC(=O)O; experiment: cells, lysate or membranes; details: microsomes of overexpressing HEK293T DHRS7-KO cells, NADP+ in excess, pH 7.5, 37 °C, apparent (pseudo-first order), eGFP fusion
# [3] = substrate: NC(=O)c1ccc[n+]([C@@H]2O[C@H](COP(=O)(O)OP(=O)(O)OC[C@H]3O[C@@H](n4cnc5c(N)ncnc54)[C@H](OP(=O)(O)O)[C@@H]3O)[C@@H](O)[C@H]2O)c1; experiment: NADPH fluorescence, plate reader, Michaelis-Menten fit of initial velocities; type: cell-based, Homo sapiens; details: microsomes of overexpressing HEK293T DHRS7-KO cells, 5(S)-HETE in excess, pH 7.5, 37 °C, apparent (pseudo-first order), eGFP fusion, varied: cofactor
Protein,Km [1],Km [2],Km [3]
B1,"0.63 (95% CI: [0.24, 1.03]) μM","1.4 (95% CI: [1.1, 1.7]) μM",
B2,,"0.78 (95% CI: [0.43, 1.13]) μM","0.62 (95% CI: [0.39, 0.97]) μM"
